Test results from paper PMC9279676, “ERK2 MAP kinase regulates SUFU binding by multisite phosphorylation of GLI1” (Life Science Alliance, 2022).

What was measured:
[1] = target: the three “two sites only”-intact mutants, ERK2-phosphorylated; experiment: pull-down; purified GST-GLI1_(68-232) variants (mock treated or ERK2 phosphorylated), 0 or 1.25-80 nM, on glutathione-Sepharose beads; ∼1 pmol 35S-SUFU in 200 μl; 15 min at 30°C, then 1 h at room temperature; Binding Buffer (20 mM Tris-HCl pH 7.5, 125 mM KOAc, 0.5 mM EDTA, 5 mM DTT, 0.1% Tween20, 12.5% glycerol) + 1 mg/ml BSA; bound SUFU quantified by SDS-PAGE and Phosphorimager; Kd from binding isotherms
[2] = target: phosphorylated single and double-phosphosite mutants; experiment: as above
[3] = target: T1, GST-GLI1^S102,S116 (GST-GLI1_(68-232), only S102 and S116 intact), mock treated (human, UniProt P08151-1 68-232, S70A | S86A | S130A | S146A | S201A); experiment: mock treated
T1 sequence: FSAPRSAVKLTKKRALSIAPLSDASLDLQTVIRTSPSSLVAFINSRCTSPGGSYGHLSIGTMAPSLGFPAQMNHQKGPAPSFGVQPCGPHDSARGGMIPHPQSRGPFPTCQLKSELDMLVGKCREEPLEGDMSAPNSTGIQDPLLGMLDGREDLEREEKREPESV

[4] = target: T2, GST-GLI1^S116,S130 (GST-GLI1_(68-232), only S116 and S130 intact), mock treated (human, UniProt P08151-1 68-232, S70A | S86A | S102A | S146A | S201A); experiment: mock treated
T2 sequence: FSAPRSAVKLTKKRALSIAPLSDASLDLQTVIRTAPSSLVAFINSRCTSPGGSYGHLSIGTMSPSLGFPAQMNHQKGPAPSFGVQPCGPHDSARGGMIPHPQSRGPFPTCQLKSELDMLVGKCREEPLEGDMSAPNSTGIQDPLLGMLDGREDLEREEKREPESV

[5] = target: T3, GST-GLI1^S130, phosphorylated by ERK2 (human, UniProt P08151-1 68-232, S70A | S86A | S102A | S116A | S146A | S201A, phosphorylated by ERK2; only intact SP site S130); experiment: GLI1 phosphorylated by ERK2
T3 sequence: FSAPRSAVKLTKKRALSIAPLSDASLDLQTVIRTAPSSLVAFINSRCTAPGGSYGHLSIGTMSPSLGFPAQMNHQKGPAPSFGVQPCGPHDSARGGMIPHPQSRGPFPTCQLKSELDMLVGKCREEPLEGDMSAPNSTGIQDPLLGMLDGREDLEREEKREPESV

[6] = target: T4, GST-GLI1^S116, phosphorylated by ERK2 (human, UniProt P08151-1 68-232, S70A | S86A | S102A | S130A | S146A | S201A, phosphorylated by ERK2; only intact SP site S116); experiment: GLI1 phosphorylated by ERK2
T4 sequence: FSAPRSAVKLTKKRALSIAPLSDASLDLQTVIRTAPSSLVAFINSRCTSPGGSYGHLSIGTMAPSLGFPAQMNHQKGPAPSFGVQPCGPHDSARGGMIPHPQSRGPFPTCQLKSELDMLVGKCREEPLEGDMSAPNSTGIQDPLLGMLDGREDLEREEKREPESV

[7] = target: T5, GST-GLI1^S116,S130, phosphorylated by ERK2 (human, UniProt P08151-1 68-232, S70A | S86A | S102A | S146A | S201A, phosphorylated by ERK2; intact SP sites S116, S130); experiment: GLI1 phosphorylated by ERK2
T5 sequence: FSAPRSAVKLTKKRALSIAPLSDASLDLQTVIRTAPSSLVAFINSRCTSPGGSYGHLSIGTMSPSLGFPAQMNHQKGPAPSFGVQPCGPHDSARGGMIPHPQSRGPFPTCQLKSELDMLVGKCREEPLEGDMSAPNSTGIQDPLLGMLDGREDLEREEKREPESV

[8] = target: T6, GST-GLI1^S116, phosphorylated by ERK2 (human, UniProt P08151-1 68-232, S70A | S86A | S102A | S130A | S146A | S201A, phosphorylated by ERK2; only intact SP site S116); experiment: pull-down; purified GST-GLI1_(68-232) variants (mock treated or ERK2 phosphorylated), 0 or 1.25-80 nM, on glutathione-Sepharose beads; ∼1 pmol 35S-SUFU in 200 μl; 15 min at 30°C, then 1 h at room temperature; Binding Buffer (20 mM Tris-HCl pH 7.5, 125 mM KOAc, 0.5 mM EDTA, 5 mM DTT, 0.1% Tween20, 12.5% glycerol) + 1 mg/ml BSA; bound SUFU quantified by SDS-PAGE and Phosphorimager; Kd from binding isotherms; settings: one partner purified
T6 construct: only the SP site S116 intact; also called ERK2-treated GLI1^S116; source: bacteria, purified (glutathione-Sepharose); then phosphorylated with purified active ERK2
T6 sequence (looked up): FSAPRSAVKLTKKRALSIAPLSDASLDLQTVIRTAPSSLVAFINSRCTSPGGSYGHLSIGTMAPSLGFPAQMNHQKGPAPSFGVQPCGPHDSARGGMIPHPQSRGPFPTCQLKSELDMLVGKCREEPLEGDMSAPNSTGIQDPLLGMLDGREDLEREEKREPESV

[9] = target: T7, GST-GLI1^S130, phosphorylated by ERK2 (human, UniProt P08151-1 68-232, S70A | S86A | S102A | S116A | S146A | S201A, phosphorylated by ERK2; only intact SP site S130); experiment: as above; settings: one partner purified
T7 construct: only the SP site S130 intact; also called ERK2-treated GLI1^S130; source: bacteria, purified (glutathione-Sepharose); then phosphorylated with purified active ERK2
T7 sequence (looked up): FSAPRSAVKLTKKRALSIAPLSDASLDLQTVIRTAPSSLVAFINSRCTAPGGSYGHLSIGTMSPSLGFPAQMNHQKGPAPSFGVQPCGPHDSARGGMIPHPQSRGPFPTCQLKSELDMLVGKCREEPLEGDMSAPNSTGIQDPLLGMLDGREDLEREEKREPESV

[10] = target: T8, GST-GLI1_(68-232), wild type, phosphorylated by ERK2 (human, UniProt P08151-1 68-232, phosphorylated by ERK2 to ∼3 mol phosphate per mole; most efficient sites Ser116 and Ser130, followed by Ser102 and Ser201); experiment: as above; settings: one partner purified
T8 construct: vector pGEX-LB; also called ERK2-phosphorylated GLI1; WT + ERK2; source: bacteria, purified (glutathione-Sepharose); then phosphorylated with purified active ERK2 (2 h, 30°C)
T8 sequence (looked up): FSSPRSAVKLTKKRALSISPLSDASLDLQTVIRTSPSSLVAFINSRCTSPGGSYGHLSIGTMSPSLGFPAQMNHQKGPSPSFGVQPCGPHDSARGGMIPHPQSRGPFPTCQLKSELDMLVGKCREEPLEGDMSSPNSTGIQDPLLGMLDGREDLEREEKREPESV

fold increase of Kd after ERK2-mediated phosphorylation [1]: 4.8 to 8.3 fold
Kd [2]: 53 nM
Kd [3]: 6 nM
Kd [4]: 11 nM
Kd [5]: 16 nM
Kd [6]: 36 nM
Kd [7]: 53 nM
fold increase of Kd upon phosphorylation [8]: 2.6 fold
fold reduction in affinity after ERK2 treatment [9]: 1.3 fold
fold increase of Kd against unphosphorylated GLI1 [10]: ~30 fold
fold weakening of Kd against unphosphorylated GLI1 [10]: > 30 fold
B1: full-length human SUFU protein, 35S-radiolabeled (natural protein, UniProt Q9UMX1-1 1-484, looked up)
chain: MAELRPSGAPGPTAPPAPGPTAPPAFASLFPPGLHAIYGECRRLYPDQPNPLQVTAIVKYWLGGPDPLDYVSMYRNVGSPSANIPEHWHYISFGLSDLYGDNRVHEFTGTDGPSGFGFELTFRLKRETGESAPPTWPAELMQGLARYVFQSENTFCSGDHVSWHSPLDNSESRIQHMLLTEDPQMQPVQTPFGVVTFLQIVGVCTEELHSAQQWNGQGILELLRTVPIAGGPWLITDMRRGETIFEIDPHLQERVDKGIETDGSNLSGVSAKCAWDDLSRPPEDDEDSRSICIGTQPRRLSGKDTEQIRETLRRGLEINSKPVLPPINPQRQNGLAHDRAPSRKDSLESDSSTAIIPHELIRTRQLESVHLKFNQESGALIPLCLRGRLLHGRHFTYKSITGDMAITFVSTGVEGAFATEEHPYAAHGPWLQILLTEEFVEKMLEDLEDLTSPEEFKLPKEYSWPEKKLKVSILPDVVFDSPLH
modifications: [35S]-methionine label
notes: human SUFU, full length, residues 1-484, from plasmid pGEM4Z-SUFU; also called 35S-SUFU; radiolabeled SUFU; source: in vitro transcription and translation (SP6, Promega), partially purified by ammonium sulfate precipitation
